# Data: article PMC3206593 (Bioorganic & medicinal chemistry, 2011)
# Positions of bridges follow the written chain, without caps; N, C: chain ends. No end group written: not given here.
# T1: Aurora A (Homo sapiens, UniProt O14965)
# T1 sequence (O14965 1-403): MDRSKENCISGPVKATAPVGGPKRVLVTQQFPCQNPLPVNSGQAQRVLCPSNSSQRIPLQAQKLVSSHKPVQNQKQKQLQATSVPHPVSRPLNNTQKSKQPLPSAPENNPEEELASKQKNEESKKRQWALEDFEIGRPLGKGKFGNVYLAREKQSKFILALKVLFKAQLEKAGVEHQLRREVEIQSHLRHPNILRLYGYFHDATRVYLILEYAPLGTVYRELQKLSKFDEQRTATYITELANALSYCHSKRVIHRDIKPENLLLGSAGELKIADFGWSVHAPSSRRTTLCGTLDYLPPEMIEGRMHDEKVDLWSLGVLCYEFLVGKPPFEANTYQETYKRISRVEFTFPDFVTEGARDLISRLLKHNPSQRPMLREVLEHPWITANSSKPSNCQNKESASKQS
# T2: (CTRPWWLC)G cyclic peptide (disulfide 1-8 (inferred))
# T2 chain: CTRPWWLCG-NH2
# Legend:
# Aurora A = biological target: T1, Aurora A; conditions: at a concentration of 100 μM; peptide appended to the helices; cited from earlier work
# [1] = biological target: T2, (CTRPWWLC)G cyclic peptide; assay: radiometric kinase kinetic assay
Ki [1],Molecule,inhibition of Aurora A (Aurora A)
–,GRRVVVSFAWD,35%
31 µM,Aurora kinase A (protein) MDRSKENCISGPVKATAPVGGPKRVLVTQQFPCQNPLPVNSGQAQRVLCPSNSSQRIPLQAQKLVSSHKPVQNQKQKQLQATSVPHPVSRPLNNTQKSKQPLPSAPENNPEEELASKQKNEESKKRQWALEDFEIGRPLGKGKFGNVYLAREKQSKFILALKVLFKAQLEKAGVEHQLRREVEIQSHLRHPNILRLYGYFHDATRVYLILEYAPLGTVYRELQKLSKFDEQRTATYITELANALSYCHSKRVIHRDIKPENLLLGSAGELKIADFGWSVHAPSSRRTTLCGTLDYLPPEMIEGRMHDEKVDLWSLGVLCYEFLVGKPPFEANTYQETYKRISRVEFTFPDFVTEGARDLISRLLKHNPSQRPMLREVLEHPWITANSSKPSNCQNKESASKQS,–
